First the molecules themselves.
B1: Trx/6×His/S-tag/001D (pET32a-001D) (Helicoverpa armigera) (protein)
chain: DDEWREVRTAQGPVRGRKHPTADMYAFYNIPYATAPTGEDKFKAPLPGPVWLEPFDAVDERVVCPQAKLPMDIMKNVVEKENCLIANVFVPNTEEKNLSVVVYVHGGAFIIGSGNMIQATHLMKTNDFIMVSFNYRLGIHGFLCLGTEDAPGNAGMKDQVALLRWVQKNIASFGGNPDDVTIVGSSAGSASVDLLMLSKSAEGLFHRVIPESGGNLAAFTVQRDPVEIAKTHAKKLNFNNVDDIYALEEFYKTVPMELLTSDHFFDRTDATFVFGPCVERDTGDGAFLTESPLSILKSGNYRKLPLLYGFAEMEGLMRINVFELWKHKMNEKFSDFLPADLKFDSEEEREEVANKIKRFYFGDKPVGDENVLKYVDYFSDVYFAYSMLWAVKLHAEAGNNQVYLYEYSFVDEDTPLVPHTNVRGADHCTQTMAVYDMKNITHEDESLATPELQKMKKVVREIWHNFIKTGVPVPEGSWLPAWPAAGADRAPHMSLGERLELRGALLPERTRFWDDIYQRYYRDAVPPPTPPPRPRSEL
notes: mature enzyme, signal peptide (residues 1-16) removed; N-terminal Trx/6×His/S-tag kept; E. coli BL21(DE3), Ni-NTA; about 79 kDa; full precursor 554 residues
B2: 6×His/S-tag/001D (pET30a-001D) (Helicoverpa armigera) (protein)
chain: DDEWREVRTAQGPVRGRKHPTADMYAFYNIPYATAPTGEDKFKAPLPGPVWLEPFDAVDERVVCPQAKLPMDIMKNVVEKENCLIANVFVPNTEEKNLSVVVYVHGGAFIIGSGNMIQATHLMKTNDFIMVSFNYRLGIHGFLCLGTEDAPGNAGMKDQVALLRWVQKNIASFGGNPDDVTIVGSSAGSASVDLLMLSKSAEGLFHRVIPESGGNLAAFTVQRDPVEIAKTHAKKLNFNNVDDIYALEEFYKTVPMELLTSDHFFDRTDATFVFGPCVERDTGDGAFLTESPLSILKSGNYRKLPLLYGFAEMEGLMRINVFELWKHKMNEKFSDFLPADLKFDSEEEREEVANKIKRFYFGDKPVGDENVLKYVDYFSDVYFAYSMLWAVKLHAEAGNNQVYLYEYSFVDEDTPLVPHTNVRGADHCTQTMAVYDMKNITHEDESLATPELQKMKKVVREIWHNFIKTGVPVPEGSWLPAWPAAGADRAPHMSLGERLELRGALLPERTRFWDDIYQRYYRDAVPPPTPPPRPRSEL
notes: mature enzyme, signal peptide (residues 1-16) removed; N-terminal 6×His/S-tag kept; E. coli BL21(DE3), Ni-NTA; about 67 kDa
B3: 6×His/001D (pE1-001D) (Helicoverpa armigera) (protein)
chain: DDEWREVRTAQGPVRGRKHPTADMYAFYNIPYATAPTGEDKFKAPLPGPVWLEPFDAVDERVVCPQAKLPMDIMKNVVEKENCLIANVFVPNTEEKNLSVVVYVHGGAFIIGSGNMIQATHLMKTNDFIMVSFNYRLGIHGFLCLGTEDAPGNAGMKDQVALLRWVQKNIASFGGNPDDVTIVGSSAGSASVDLLMLSKSAEGLFHRVIPESGGNLAAFTVQRDPVEIAKTHAKKLNFNNVDDIYALEEFYKTVPMELLTSDHFFDRTDATFVFGPCVERDTGDGAFLTESPLSILKSGNYRKLPLLYGFAEMEGLMRINVFELWKHKMNEKFSDFLPADLKFDSEEEREEVANKIKRFYFGDKPVGDENVLKYVDYFSDVYFAYSMLWAVKLHAEAGNNQVYLYEYSFVDEDTPLVPHTNVRGADHCTQTMAVYDMKNITHEDESLATPELQKMKKVVREIWHNFIKTGVPVPEGSWLPAWPAAGADRAPHMSLGERLELRGALLPERTRFWDDIYQRYYRDAVPPPTPPPRPRSEL
notes: mature enzyme, signal peptide (residues 1-16) removed; N-terminal 6×His tag kept; E. coli BL21(DE3), Ni-NTA; about 63 kDa

Substrate in this series: CC(=O)Oc1cccc2ccccc12
In words: purified protein. The following applies: 0.1 M sodium phosphate pH 7.0, 30 °C. It is filed as biochemical, Helicoverpa armigera.
In the case of B1, the Km is 7.61(0.63) µM and the kcat is 2.29(0.08) s^-1.
For B2 the same measures were 12.51(2.14) µM and 0.60(0.06) s^-1.
For the protein B3, the Km was 19.72(6.69) µM and the kcat was 0.35(0.05) s^-1.

These data come from article PMC4848949, “Bacterial Expression and Kinetic Analysis of Carboxylesterase 001D from Helicoverpa armigera” (International Journal of Molecular Sciences, 2016).
